Measured values: US20230072897A1, “ANTI-B7-H4 ANTIBODY-DRUG CONJUGATE AND MEDICINAL USE THEREOF” (SHANGHAI HANSOH BIOMEDICAL CO., LTD., priority 2019, published 2023)

Target: human B7-H4 on MX-1 cells (human) (UniProt Q7Z7D3)
Test: cell-based or functional assay

UniProt Q7Z7D3, sequence (Q7Z7D3 25-282): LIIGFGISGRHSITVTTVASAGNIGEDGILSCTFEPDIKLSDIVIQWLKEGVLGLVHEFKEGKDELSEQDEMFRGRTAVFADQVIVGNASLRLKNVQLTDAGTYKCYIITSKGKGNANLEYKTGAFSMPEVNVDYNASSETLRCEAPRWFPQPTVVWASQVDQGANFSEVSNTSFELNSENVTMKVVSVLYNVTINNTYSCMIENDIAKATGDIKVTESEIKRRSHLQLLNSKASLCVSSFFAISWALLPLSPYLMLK

Humanized antibody-mediated endocytosis efficiency of B7-H4 protein, 0 hour (%): 0% | Humanized antibody-mediated endocytosis efficiency of B7-H4 protein, 0.5 hour (%): 0.1% | Humanized antibody-mediated endocytosis efficiency of B7-H4 protein, 2 hours (%): 0.9%
Substance: IgG control (antibody)
